# Results taken from patent publication US20170298146A1 (MODIQUEST B V, published 2017).
# Non-standard residues stand in square brackets, D forms with d. No end group written: not given here. Cit = NC(=O)NCCC[C@H](N)C(=O)O
# T1: Histone 2A citrulline-containing peptide 5 (human, also: biotin label)
# T1 peptide: VGRVH[Cit]LLRKGN
# T2: Histone 2A citrulline-containing peptide 3 (human, also: biotin label)
# T2 peptide: KSRSS[Cit]AGLQFP
# T3: Histone 2A citrulline-containing peptide 7 (human, also: biotin label)
# T3 peptide: GNYSE[Cit]VGAGAP
# T4: Histone 2A citrulline-containing peptide 1 (human, also: biotin label)
# T4 construct: also called AAASGXGKQGGK
# T4 peptide: AAASG[Cit]GKQGGK
# T5: Histone 2A citrulline-containing peptide 10 (human, also: biotin label)
# T5 peptide: TRIIP[Cit]HLQLAI
# T6: Histone 2A citrulline-containing peptide 12 (human, also: biotin label)
# T6 peptide: NKLLG[Cit]VTIAQG
# T7: Histone 2A citrulline-containing peptide 11 (human, also: biotin label)
# T7 peptide: LQLAI[Cit]NDEELN
# T8: Histone 2A citrulline-containing peptide 8 (human, also: biotin label)
# T8 peptide: AGNAA[Cit]DNKKTR
# T9: Histone 2A citrulline-containing peptide 6 (human, also: biotin label)
# T9 peptide: VHRLL[Cit]KGNYSE
# T10: Histone 2A citrulline-containing peptide 4 (human, also: biotin label)
# T10 peptide: QFPVG[Cit]VHRLLR
# B1: RhmAb2.102 (antibody, human IgG1, lambda)
# heavy: not shown
# light: QSVLTQPPSMSAAPGQKVTISCSGSSSNIGNNYVSWYQQVPGTAPKLLIYDDNKRPSGIPGRFSGSKSATSATLGITGLQAGDEADYYCGSWDDNLSVVLFGGGTKLTVLGQPKAAPSVTLFPPSSEELQANKATLVCLISDFYPGAVTVAWKADSSPVKAGVETTTPSKQSNNKYAASSYLSLTPEQWKSHRSYSCQVTHEGSTVEKTVAPTECS
# notes: Human IgG1 lambda; also called Rhm2.102
# How the values were obtained:
# [1] = target: T1, Histone 2A citrulline-containing …; assay: peptide ELISA, 0.016 ug/well
# Description: (§1) Biotin and citrulline-containing peptides derived from histone 2A were immobilized on NEUTRAVIDIN®-coated 96-well ELISA plates (0.3 μg/well). CFC-1 and CFC-0 were coated at the same concentration and served as positive and negative controls respectively for specific anti-citrulline reactivity and as coating controls. Non-coated wells were used to test for aspecific binding of the antibodies. […] Detection of bound anti-citrulline antibodies was performed by incubating the wells with rabbit-anti-human-HRP (1:2000) for one hour at RT followed by incubation with TMB substrate. The resulting OD (y-axis) is a measure for antibody binding.
# (§2) Ninety-six-well ELISA plates were coated with NEUTRAVIDIN® (0.1 μg/well) by overnight incubation at 4° C. Wells were washed five times with PBS-TWEEN®-20 (PBS-T) and blocked by a one-hour incubation with PBS-T+1% Bovine serum albumin (BSA) at room temperature (RT). After five more washes with PBS-T, wells were incubated for one hour at RT with histone-derived citrulline and biotin-containing peptides (0.3 μg/well). […] Wells were washed five times with PBS-T and incubated with rabbit-anti-human-HRP (1:2000) for one hour at RT followed by five washes with PBS-T and three wash steps with PBS. Wells were incubated for five minutes with TMB substrate before stopping the reaction with 2 M H₂SO₄. Optical density was measured by 450 nm and is a measure for the affinity of the antibodies used.
# [2] = target: T2, Histone 2A citrulline-containing …; assay: peptide ELISA, 0.016 ug/well
# Description: as §1, §2
# [3] = target: T3, Histone 2A citrulline-containing …; assay: peptide ELISA, 0.016 ug/well
# Description: as §1, §2
# [4] = target: T4, Histone 2A citrulline-containing …; assay: peptide ELISA, 0.016 ug/well
# Description: as §1, §2
# [5] = target: T5, Histone 2A citrulline-containing …; assay: peptide ELISA, 0.016 ug/well
# Description: as §1, §2
# CFC-1 = target: T11, CFC-1; assay: peptide ELISA, 0.016 ug/well
# T11 construct: Positive control for anti-citrulline reactivity; also called cfc1 XG
# Description: as §1, §2
# [6] = target: T6, Histone 2A citrulline-containing …; assay: peptide ELISA, 2 ug/well
# Description: as §1, §2
# [7] = target: T7, Histone 2A citrulline-containing …; assay: peptide ELISA, 2 ug/well
# Description: as §1, §2
# [8] = target: T8, Histone 2A citrulline-containing …; assay: peptide ELISA, 2 ug/well
# Description: as §1, §2
# [9] = target: T9, Histone 2A citrulline-containing …; assay: peptide ELISA, 2 ug/well
# Description: as §1, §2
# [10] = target: T10, Histone 2A citrulline-containing …; assay: peptide ELISA, 2 ug/well
# Description: as §1, §2
# [11] = target: T1, Histone 2A citrulline-containing …; assay: peptide ELISA, 2 ug/well
# Description: as §1, §2
# [12] = target: T2, Histone 2A citrulline-containing …; assay: peptide ELISA, 2 ug/well
# Description: as §1, §2
# [13] = target: T3, Histone 2A citrulline-containing …; assay: peptide ELISA, 2 ug/well
# Description: as §1, §2
binder,measurement,setting,value
B1,OD,[1],0.065 OD
same,OD,[2],0.07 OD
same,OD,[3],0.061 OD
same,OD,[4],0.843 OD
same,OD,[5],0.066 OD
same,OD,CFC-1,1.46 OD
same,OD,[6],0.067 OD
same,OD,[7],0.067 OD
same,OD,[8],0.06 OD
same,OD,[9],0.752 OD
same,OD,[10],1.3 OD
same,OD,[11],0.111 OD
same,OD,[12],0.286 OD
same,OD,[13],0.059 OD
